# Results taken from paper PMC8643664.
# B1: FLAG-ORC1 (full-length) (natural protein)
# chain: MAHYPTRLKTRKTYSWVGRPLLDRKLHYQTYREMCVKTEGCSTEIHIQIGQFVLIEGDDDENPYVAKLLELFEDDSDPPPKKRARVQWFVRFCEVPACKRHLLGRKPGAQEIFWYDYPACDSNINAETIIGLVRVIPLAPKDVVPTNLKNEKTLFVKLSWNEKKFRPLSSELFAELNKPQESAAKCQKPVRAKSKSAESPSWTPAEHVAKRIESRHSASKSRQTPTHPLTPRARKRLELGNLGNPQMSQQTSCASLDSPGRIKRKVAFSEITSPSKRSQPDKLQTLSPALKAPEKTRETGLSYTEDDKKASPEHRIILRTRIAASKTIDIREERTLTPISGGQRSSVVPSVILKPENIKKRDAKEAKAQNEATSTPHRIRRKSSVLTMNRIRQQLRFLGNSKSDQEEKEILPAAEISDSSSDEEEASTPPLPRRAPRTVSRNLRSSLKSSLHTLTKVPKKSLKPRTPRCAAPQIRSRSLAAQEPASVLEEARLRLHVSAVPESLPCREQEFQDIYNFVESKLLDHTGGCMYISGVPGTGKTATVHEVIRCLQQAAQANDVPPFQYIEVNGMKLTEPHQVYVQILQKLTGQKATANHAAELLAKQFCTRGSPQETTVLLVDELDLLWTHKQDIMYNLFDWPTHKEARLVVLAIANTMDLPERIMMNRVSSRLGLTRMCFQPYTYSQLQQILRSRLKHLKAFEDDAIQLVARKVAALSGDARRCLDICRRATEICEFSQQKPDSPGLVTIAHSMEAVDEMFSSSYITAIKNSSVLEQSFLRAILAEFRRSGLEEATFQQIYSQHVALCRMEGLPYPTMSETMAVCSHLGSCRLLLVEPSRNDLLLRVRLNVSQDDVLYALKDE
# B2: FLAG-ORC1 (325–511) (domain or fragment)
# chain: SKTIDIREERTLTPISGGQRSSVVPSVILKPENIKKRDAKEAKAQNEATSTPHRIRRKSSVLTMNRIRQQLRFLGNSKSDQEEKEILPAAEISDSSSDEEEASTPPLPRRAPRTVSRNLRSSLKSSLHTLTKVPKKSLKPRTPRCAAPQIRSRSLAAQEPASVLEEARLRLHVSAVPESLPCREQEF
# B3: FLAG-ORC1 (244–511) (domain or fragment)
# chain: NPQMSQQTSCASLDSPGRIKRKVAFSEITSPSKRSQPDKLQTLSPALKAPEKTRETGLSYTEDDKKASPEHRIILRTRIAASKTIDIREERTLTPISGGQRSSVVPSVILKPENIKKRDAKEAKAQNEATSTPHRIRRKSSVLTMNRIRQQLRFLGNSKSDQEEKEILPAAEISDSSSDEEEASTPPLPRRAPRTVSRNLRSSLKSSLHTLTKVPKKSLKPRTPRCAAPQIRSRSLAAQEPASVLEEARLRLHVSAVPESLPCREQEF
# B4: FLAG-ORC1 (2–511) (domain or fragment)
# chain: AHYPTRLKTRKTYSWVGRPLLDRKLHYQTYREMCVKTEGCSTEIHIQIGQFVLIEGDDDENPYVAKLLELFEDDSDPPPKKRARVQWFVRFCEVPACKRHLLGRKPGAQEIFWYDYPACDSNINAETIIGLVRVIPLAPKDVVPTNLKNEKTLFVKLSWNEKKFRPLSSELFAELNKPQESAAKCQKPVRAKSKSAESPSWTPAEHVAKRIESRHSASKSRQTPTHPLTPRARKRLELGNLGNPQMSQQTSCASLDSPGRIKRKVAFSEITSPSKRSQPDKLQTLSPALKAPEKTRETGLSYTEDDKKASPEHRIILRTRIAASKTIDIREERTLTPISGGQRSSVVPSVILKPENIKKRDAKEAKAQNEATSTPHRIRRKSSVLTMNRIRQQLRFLGNSKSDQEEKEILPAAEISDSSSDEEEASTPPLPRRAPRTVSRNLRSSLKSSLHTLTKVPKKSLKPRTPRCAAPQIRSRSLAAQEPASVLEEARLRLHVSAVPESLPCREQEF
# Molecular target: TRF2 (45–244)-LacI
# Assay: lacO-LacI protein tethering assay
row,co-localization frequency,Binder
1,26%,B1
2,46%,B2
3,90%,B3
4,73%,B4
